pKd: −log10 of the molar value.
How the values were obtained:
[1] = molecular target: IL-2R on murine splenocytes (mouse) (UniProt P16297); assay: cell-based or functional assay
[2] = molecular target: CD122/CD132 complex (His-tagged, Acro Biosystem ILG-H5283) (UniProt P14784); assay: SPR, CD122/CD132 captured on NTA chip
Sequence of CD122/CD132 complex (His-tagged, Acro Biosystem ILG-H5283) (P14784 27-239 limits assumed, chain 1 of 2): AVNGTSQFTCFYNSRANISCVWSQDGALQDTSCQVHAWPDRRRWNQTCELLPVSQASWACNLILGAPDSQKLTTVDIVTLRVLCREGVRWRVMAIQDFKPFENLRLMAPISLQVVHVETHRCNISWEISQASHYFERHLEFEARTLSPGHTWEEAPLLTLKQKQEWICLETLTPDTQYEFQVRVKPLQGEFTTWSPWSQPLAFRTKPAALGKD
Sequence of CD122/CD132 complex (His-tagged, Acro Biosystem ILG-H5283) (P31785 23-262 limits assumed, chain 2 of 2, further chain): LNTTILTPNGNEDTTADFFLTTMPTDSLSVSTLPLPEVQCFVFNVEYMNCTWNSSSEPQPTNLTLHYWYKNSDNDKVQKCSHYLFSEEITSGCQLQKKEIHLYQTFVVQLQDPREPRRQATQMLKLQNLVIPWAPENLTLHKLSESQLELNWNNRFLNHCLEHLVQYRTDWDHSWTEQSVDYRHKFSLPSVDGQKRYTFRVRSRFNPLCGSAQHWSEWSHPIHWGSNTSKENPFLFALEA

Sequence of IL-2R on murine splenocytes (mouse) (P16297 27-539, chain 1 of 2): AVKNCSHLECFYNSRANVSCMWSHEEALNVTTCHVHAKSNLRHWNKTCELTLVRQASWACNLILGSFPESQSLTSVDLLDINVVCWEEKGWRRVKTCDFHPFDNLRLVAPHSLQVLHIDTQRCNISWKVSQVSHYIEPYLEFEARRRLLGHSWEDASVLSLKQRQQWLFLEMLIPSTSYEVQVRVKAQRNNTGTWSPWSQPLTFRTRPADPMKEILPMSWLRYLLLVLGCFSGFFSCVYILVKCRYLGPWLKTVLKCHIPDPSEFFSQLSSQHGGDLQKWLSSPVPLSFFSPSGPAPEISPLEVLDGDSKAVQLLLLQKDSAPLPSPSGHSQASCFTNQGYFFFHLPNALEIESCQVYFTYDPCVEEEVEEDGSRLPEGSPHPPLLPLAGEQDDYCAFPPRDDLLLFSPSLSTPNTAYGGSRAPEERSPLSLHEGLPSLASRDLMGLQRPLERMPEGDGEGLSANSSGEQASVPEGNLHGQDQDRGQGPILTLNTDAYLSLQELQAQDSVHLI
Sequence of IL-2R on murine splenocytes (mouse) (P34902 23-369, chain 2 of 2, further chain): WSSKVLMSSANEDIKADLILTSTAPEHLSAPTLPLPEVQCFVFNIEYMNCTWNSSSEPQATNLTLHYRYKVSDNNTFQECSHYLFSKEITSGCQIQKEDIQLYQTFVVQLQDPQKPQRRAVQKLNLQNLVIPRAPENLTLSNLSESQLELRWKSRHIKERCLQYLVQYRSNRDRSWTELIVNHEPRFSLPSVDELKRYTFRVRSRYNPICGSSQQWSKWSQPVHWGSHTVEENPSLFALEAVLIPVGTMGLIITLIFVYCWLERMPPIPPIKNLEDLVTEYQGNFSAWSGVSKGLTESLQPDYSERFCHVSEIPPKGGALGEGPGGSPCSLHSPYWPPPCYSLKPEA

EC50 CD8 cells (pSTAT5) [1]: 4.1 nM
EC50 NK cells (pSTAT5) [1]: 1.4 nM
EC50 Treg cells (pSTAT5) [1]: < 16 pM
EC50 pSTAT5 on CD8 cells [1]: 11.9 nM
EC50 pSTAT5 on NK cells [1]: 2.51 nM
EC50 pSTAT5 on Treg cells [1]: < 20 pM
pKd [2]: 9.38
Substance: Proleukin (ligand)

Reference: patent EP4491631A1
